Patent US20260232769A1 (WUXI BIOLOGICS IRELAND, published 2026)
Substitutions are numbered along the chain they refer to.

T1: IL-2Rβ/γc complex (intermediate affinity receptor) on primary human CD8+ T cells (human, UniProt P14784 27-551; P31785 23-369)
T1 sequence (looked up) 1: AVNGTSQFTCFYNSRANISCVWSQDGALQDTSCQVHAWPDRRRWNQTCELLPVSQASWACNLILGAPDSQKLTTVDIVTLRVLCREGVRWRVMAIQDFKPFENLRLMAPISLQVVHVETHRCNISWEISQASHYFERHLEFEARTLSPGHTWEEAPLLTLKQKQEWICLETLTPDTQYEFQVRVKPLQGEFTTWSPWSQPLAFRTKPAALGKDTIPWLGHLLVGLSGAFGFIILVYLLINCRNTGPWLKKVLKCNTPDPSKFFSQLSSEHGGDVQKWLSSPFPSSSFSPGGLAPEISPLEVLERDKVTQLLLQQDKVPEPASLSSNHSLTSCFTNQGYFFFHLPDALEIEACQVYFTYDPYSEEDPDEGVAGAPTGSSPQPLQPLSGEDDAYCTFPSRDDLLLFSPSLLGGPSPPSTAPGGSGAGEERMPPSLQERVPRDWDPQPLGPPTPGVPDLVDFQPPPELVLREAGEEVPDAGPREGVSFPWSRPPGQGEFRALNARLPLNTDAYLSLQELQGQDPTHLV
T1 sequence (looked up) 2: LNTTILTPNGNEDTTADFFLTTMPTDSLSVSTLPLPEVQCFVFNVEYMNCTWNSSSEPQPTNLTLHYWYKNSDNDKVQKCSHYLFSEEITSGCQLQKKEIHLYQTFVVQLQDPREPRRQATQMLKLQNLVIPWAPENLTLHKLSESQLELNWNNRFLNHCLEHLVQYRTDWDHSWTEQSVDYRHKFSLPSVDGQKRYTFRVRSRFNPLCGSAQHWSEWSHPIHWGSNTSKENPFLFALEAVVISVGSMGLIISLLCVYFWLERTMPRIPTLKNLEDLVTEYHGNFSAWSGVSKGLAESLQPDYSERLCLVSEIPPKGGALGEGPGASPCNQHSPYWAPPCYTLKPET

T2: IL-2Rα/β/γc complex (high affinity receptor) on human activated CD8+ T cells (human, UniProt P01589 22-272; P14784 27-551; P31785 23-369)
T2 sequence (looked up) 1: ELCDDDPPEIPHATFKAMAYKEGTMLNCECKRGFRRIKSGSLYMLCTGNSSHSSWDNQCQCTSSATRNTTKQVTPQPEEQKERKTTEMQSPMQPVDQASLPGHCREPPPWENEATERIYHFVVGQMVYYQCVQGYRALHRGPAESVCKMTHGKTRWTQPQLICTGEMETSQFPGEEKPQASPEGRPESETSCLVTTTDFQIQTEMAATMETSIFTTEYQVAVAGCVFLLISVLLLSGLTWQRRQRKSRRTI
T2 sequence (looked up) 2: T1 sequence (looked up) 1
T2 sequence (looked up) 3: T1 sequence (looked up) 2

B1: W3XX115-T2U0.E44-44.uIgG4V322 (Fc fusion)
chain: APTSSSTKKTQLQLEHLLLDLQMILNGINNYKNPKLTRMLTFKFYMPKKATGLKHLQCLEEELKPLEEVLNLAQSKNFHLRPRDLISNINVIVLELKGSETTFMCEYADETATIVEFLNRWITFCQSIIESKYGPPCPPCPAPEAAGGPSVFLFPPKPKDTLMISRTPEVTCVVVDVSQEDPEVQFNWYVDGVEVHNAKTKPREEQFNSTYRVVSVLTVLHQDWLNGKEYKCKVSNKGLPSSIEKTISKAKGQPREPQVYTLPPCQEEMTKNQVSLWCLVKGFYPSDIAVEWESNGQPENNYKTTPPVLDSDGSFFLYSRLTVDKSRWQEGNVFSCSVMHEALHNHYTQKSLSLSLG
heavy: EIQLQQSGPELVKPGASVKVSCKASGYSFTDYNMYWVKQSHGESLEWIGYIDPYNGGTRYNQKFKGKATLTVDKSSSTAFMHLNSLTSEDSAVYYCARNGHWDGAWFAYWGQGTLVTVSAASTKGPSVFPLAPCSRSTSESTAALGCLVKDYFPEPVTVSWNSGALTSGVHTFPAVLQSSGLYSLSSVVTVPSSSLGTKTYTCNVDHKPSNTKVDKRVESKYGPPCPPCPAPEAAGGPSVFLFPPKPKDTLMISRTPEVTCVVVDVSQEDPEVQFNWYVDGVEVHNAKTKPREEQFNSTYRVVSVLTVLHQDWLNGKEYKCKVSNKGLPSSIEKTISKAKGQPREPQVCTLPPSQEEMTKNQVSLSCAVKGFYPSDIAVEWESNGQPENNYKTTPPVLDSDGSFFLVSRLTVDKSRWQEGNVFSCSVMHEALHNHYTQKSLSLSLG
light: DIQMNQSPSSLSASLGDTITITCHASQNINVWLSWYQQKPGNIPKLLIYKASNLHTGVPSRFSGSRSGTGFTLTISSLQPEDIATYYCHQGQSYPFTFGSGTKLEIKRTVAAPSVFIFPPSDEQLKSGTASVVCLLNNFYPREAKVQWKVDNALQSGNSQESVTEQDSKDSTYSLSSTLTLSKADYEKHKVYACEVTHQGLSSPVTKSFNRGEC
B2: W3XX115-T2U0.E44-45.uIgG4V322 (Fc fusion)
chain: B1 chain with G52E, K76R
heavy: B1 heavy
light: B1 light
B3: W3XX115-T2U0.E44-40.uIgG4V322 (Fc fusion)
chain: B1 chain with G52E, E110R
heavy: B1 heavy
light: B1 light
B4: W3XX115-T2U0.E44-47.uIgG4V322 (Fc fusion)
chain: B1 chain with G52E, P82Y
heavy: B1 heavy
light: B1 light
B5: W3XX115-T2U0.E44-46.uIgG4V322 (Fc fusion)
chain: B1 chain with G52E, F78G
heavy: B1 heavy
light: B1 light
B6: W3XX115-T2U0.E44-43.uIgG4V322 (Fc fusion)
chain: B1 chain with K32D, G52E
heavy: B1 heavy
light: B1 light
B7: W3XX115-T2U0.E44-6.uIgG4V322 (Fc fusion)
chain: B1 chain with G52E
heavy: B1 heavy
light: B1 light
B8: W3XX115-T2U3.E44-15.uIgG4V322 (Fc fusion)
chain: APTSSSTKKTQLQLEHLLLDLQMILNGINNYKNPKLTRMLTVKFYMPKKATELKHLQCLEEELKPLEEVLNLAQSKNFHLRPRDLISNINVIVLELKGSETTFMCEYADETATIVEFLNRWITFCQSIIESKYGPPCPPCPAPEAAGGPSVFLFPPKPKDTLMISRTPEVTCVVVDVSQEDPEVQFNWYVDGVEVHNAKTKPREEQFNSTYRVVSVLTVLHQDWLNGKEYKCKVSNKGLPSSIEKTISKAKGQPREPQVYTLPPCQEEMTKNQVSLWCLVKGFYPSDIAVEWESNGQPENNYKTTPPVLDSDGSFFLYSRLTVDKSRWQEGNVFSCSVMHEALHNHYTQKSLSLSLGK
heavy: QVQLVQSGAEVKKPGSSVKVSCKASGFTFTTYYISWVRQAPGQGLEYLGYINMGSGGTNYNEKFKGRVTITADKSTSTAYMELSSLRSEDTAVYYCAIIGYFDYWGQGTMVTVSSASTKGPSVFPLAPCSRSTSESTAALGCLVKDYFPEPVTVSWNSGALTSGVHTFPAVLQSSGLYSLSSVVTVPSSSLGTKTYTCNVDHKPSNTKVDKRVESKYGPPCPPCPAPEAAGGPSVFLFPPKPKDTLMISRTPEVTCVVVDVSQEDPEVQFNWYVDGVEVHNAKTKPREEQFNSTYRVVSVLTVLHQDWLNGKEYKCKVSNKGLPSSIEKTISKAKGQPREPQVCTLPPSQEEMTKNQVSLSCAVKGFYPSDIAVEWESNGQPENNYKTTPPVLDSDGSFFLVSRLTVDKSRWQEGNVFSCSVMHEALHNHYTQKSLSLSLGK
light: DVVMTQSPLSLPVTLGQPASISCRSSQSLLDSDGGTYLYWFQQRPGQSPRRLIYLVSTLGSGVPDRFSGSGSGTDFTLKISRVEAEDVGVYYCMQLTHWPYTFGQGTKLEIKRTVAAPSVFIFPPSDEQLKSGTASVVCLLNNFYPREAKVQWKVDNALQSGNSQESVTEQDSKDSTYSLSSTLTLSKADYEKHKVYACEVTHQGLSSPVTKSFNRGEC
B9: W3XX115-T2U10.Z73-56.uIgG4V322 (Fc fusion)
chain 1: B8 chain with K32D, V42I, D84K, I129L
chain 2: QVQLVESGGGVVQPGGSLRLSCAASDSIDSLVNMGWYRQAPGKQRELVALIATYITHYADFVKGRFTISRDNSKNTLYLQMNSLRAEDTAVYYCYARNIIVDYWGQGTLVTVSSGGGGSGGGGSGGGGSQVQLVESGGGVVQPGGSLRLSCAASDSIDSLVNMGWYRQAPGKQRELVALIATYITHYADFVKGRFTISRDNSKNTLYLQMNSLRAEDTAVYYCYARNIIVDYWGQGTLVTVSSESKYGPPCPPCPAPEAAGGPSVFLFPPKPKDTLMISRTPEVTCVVVDVSQEDPEVQFNWYVDGVEVHNAKTKPREEQFNSTYRVVSVLTVLHQDWLNGKEYKCKVSNKGLPSSIEKTISKAKGQPREPQVCTLPPSQEEMTKNQVSLSCAVKGFYPSDIAVEWESNGQPENNYKTTPPVLDSDGSFFLVSRLTVDKSRWQEGNVFSCSVMHEALHNHYTQKSLSLSLG
B10: W3XX115-T2U10.Z73-59.uIgG4V322 (Fc fusion)
chain 1: B8 chain with K32D, V42I, V91E, I129L
chain 2: B9 chain 2
B11: W3XX115-T2U10.Z73-61.uIgG4V322 (Fc fusion)
chain 1: B8 chain with K32D, V42I, I92D, I129L
chain 2: B9 chain 2
B12: W3XX115-T2U10.Z73-64.uIgG4V322 (Fc fusion)
chain 1: B8 chain with K32D, V42I, N119R, I129L
chain 2: B9 chain 2
B13: W3XX115-T2U10.Z73-58.uIgG4V322 (Fc fusion)
chain 1: B8 chain with K32D, V42I, N88K, I129L
chain 2: B9 chain 2
B14: W3XX115-T2U10.Z73-62.uIgG4V322 (Fc fusion)
chain 1: B8 chain with K32D, V42I, L94D, I129L
chain 2: B9 chain 2
B15: W3XX115-T2U10.Z73-60.uIgG4V322 (Fc fusion)
chain 1: B8 chain with K32D, V42I, I92R, I129L
chain 2: B9 chain 2
B16: W3XX115-T2U10.Z73-63.uIgG4V322 (Fc fusion)
chain 1: B8 chain with K32D, V42I, E95R, I129L
chain 2: B9 chain 2

Each binder was assayed against T1, IL-2Rβ/γc complex (intermediate …) (assay: cell-based or functional assay).

Row | Potency reduction, pSTAT5, human primary CD8+ T [fold] | pSTAT5 EC50, human primary CD8+ T [nM] | Binder
1 | 11.3 | 86.2 | B1
2 | 31.4 | 240 | B2
3 | 36.9 | 282 | B3
4 | 27.6 | 211 | B4
5 | 7.6 | 58.4 | B5
6 | 17.6 | 135 | B6
7 | 18.3 | 145 | B7

The binders below were run against PD-1 (on CHO-PD1 engineered cell line; on activated CD8+ T cells) (UniProt Q15116 25-288, limits assumed) (assay: cell-based or functional assay).

Row | PD-1+/PD-1- ratio (pSTAT5 potency, activated versus primary CD8+ T) [fold] | Binder
8 | 496 | B8

Target: T1, IL-2Rβ/γc complex (intermediate …)
Experiment: cell-based or functional assay
Remark: another data set of the same source

Row | Potency reduction, pSTAT5, human primary CD8+ T [fold] | pSTAT5 EC50, human primary CD8+ T [nM] | Binder
9 | 132 | 1870 | B8

Each binder was assayed against T2, IL-2Rα/β/γc complex (high affinity …) (assay: cell-based or functional assay).

Row | Potency reduction, pSTAT5, human activated CD8+ T (CD25 positive and PD-1 positive) [fold] | pSTAT5 EC50, human activated CD8+ T (CD25 positive and PD-1 positive) [nM] | Binder
10 | 139 | 3.78 | B8

Target: T1, IL-2Rβ/γc complex (intermediate …)
Experiment: cell-based or functional assay
Remark: another data set of the same source

Row | Potency reduction, pSTAT5, human activated CD8+ T [fold] | Binder
11 | 2.5 | B9
12 | 18.9 | B10
13 | 14.2 | B11
14 | 58.7 | B12
15 | 26.1 | B13
16 | 6.5 | B14
17 | 10 | B15
18 | 2.5 | B16
